According to PMC11934133 (2025):

B1: GST-tagged ZIKV_NbD6 (VHH)
VHH: EVQLVESGGGSVQPGGSLRLSCAASGFAFSHYAMRWVRQAPGKGLEWVSVINSDGEDTWYADSVKGRFTISRDNAKNTLYLQMNSLKPEDTGVYYCAIGRTHDTKGQGTQVTVS
B2: ZIKV_Nb32 with C-terminal StrepTag-II (VHH)
VHH: EVQLVESGGGLVQAGGSLRLSCAVSGIDFSRYAITWNRQSPGNQRREWVATLPPADTTVYADAVKGRFTISRDNTKNTVYLQMNSLKPEDTAVYYCATSPRIHNWGQGTQVTVSS
B3: ZIKV_NbD6 with C-terminal StrepTag-II (VHH)
VHH: EVQLVESGGGSVQPGGSLRLSCAASGFAFSHYAMRWVRQAPGKGLEWVSVINSDGEDTWYADSVKGRFTISRDNAKNTLYLQMNSLKPEDTGVYYCAIGRTHDTKGQGTQVTVSS
B4: GST-tagged ZIKV_Nb32 (VHH)
VHH: EVQLVESGGGLVQAGGSLRLSCAVSGIDFSRYAITWNRQSPGNQRREWVATLPPADTTVYADAVKGRFTISRDNTKNTVYLQMNSLKPEDTAVYYCATSPRIHNWGQGTQVTVS

Assays:
[1] = target: T1, Zika virus SPH2015 nonstructural protein 1 (NS1) (Zika virus (strain SPH2015)); assay: BLI; GST-VHH immobilized, NS1 in solution
T1 chain: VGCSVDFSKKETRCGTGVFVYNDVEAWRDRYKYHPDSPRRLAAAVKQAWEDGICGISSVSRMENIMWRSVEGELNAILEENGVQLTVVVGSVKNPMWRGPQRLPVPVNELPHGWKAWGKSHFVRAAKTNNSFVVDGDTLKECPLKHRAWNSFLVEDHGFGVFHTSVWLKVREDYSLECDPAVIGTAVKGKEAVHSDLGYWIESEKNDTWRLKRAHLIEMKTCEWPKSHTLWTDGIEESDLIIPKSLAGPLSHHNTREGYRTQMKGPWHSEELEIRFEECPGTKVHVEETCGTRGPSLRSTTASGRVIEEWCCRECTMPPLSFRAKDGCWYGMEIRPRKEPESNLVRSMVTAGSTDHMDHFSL

[2] = target: T1, Zika virus SPH2015 nonstructural …; assay: BLI; NS1 immobilized, GST-VHH in solution
[3] = target: Zika virus SPH2015 nonstructural protein 1 (NS1) (Zika virus (strain SPH2015)); assay: BLI
[4] = target: T1, Zika virus SPH2015 nonstructural …; assay: BLI
[5] = target: T1, Zika virus SPH2015 nonstructural …; assay: BLI; NS1 saturated with Nb32-Strep

Binder	koff [1]	koff [2]	Kd [3]	fold increase of koff against the GST-tagged nanobody [3]	fold increase of kon against the GST-tagged nanobody [3]	koff [4]	Kd [5]	fold increase of koff against the orientation with the nanobody immobilised [3]
B1	< 1e-07 s⁻¹	7.6e-05 s⁻¹	–	–	–	–	–	–
B2	–	–	0.16 nM	15 fold	3.2 fold	0.00029 s⁻¹	–	–
B3	–	–	8 nM	26 fold	3.6 fold	0.002 s⁻¹	5.9 nM	–
B4	< 1e-07 s⁻¹	2e-05 s⁻¹	0.035 nM	–	–	–	–	> 100 fold
